Laboratory results published in US20250034594A1, “RNA-GUIDED GENOME RECOMBINEERING AT KILOBASE SCALE” (THE BOARD OF TRUSTEES OF THE LELAND STANFORD JUNIOR …, priority 2021, published 2025).

B1: SSAP_90: SEQ ID NO: 259; Xenorhabdus poinarii (protein, listed as Xenorhabdus poinarii)
chain: TNTPPLAQADLQKAQPQTKVAATKDQALIQFINKPSMKAQLAAALPRHMAPDRMIRIVTTEIRKTPALANCDMQSFVGAVVQCSQLGLEPGSALGHAYLLPFGNGKSKTGQSNVQLIIGYRGMIDLARRSGQIVSISARTVRDGDQFHYEYGLNENLTHIPGENEDAPITHVYAVARLQDGGVQFEVMTRKQVEKVREKSSAGNNGPWVTHWEEMAKKTVIRRLFKYLPVSIEMQKAVILDEKADANIDQDNAAIFEGEFEEVGNDG
B2: SSAP_86: SEQ ID NO: 255 (protein)
chain: ADLTKTANGADLAAAIGGKQAETGRATAFDLVKSMEAEFAKALPRHVPVEQFMRTAVTELRQNADLQRSTSESLLGAFLTAARLGLEVGGPMGEFYLTPRFAKLPGQDQKAWQVVPIVGYRGLVKLARNAGVGAVKAWVVYEGDHFVEGANSERGPFFDFHPVPGDPAGRKEVGVLAVARLSGGDVQHTYLTIEQVEKRKARGSAGDKGPWATDRAAMIRKSGIRALAGELPQSTLLALARVVDEEVQTYVPGSLVDVGTGELEA
B3: SSAP_245: SEQ ID NO: 414; Paenibacillus macquariensis subsp. defensor (protein, listed as Paenibacillus macquariensis)
chain: SDKLLVIHKNLENLLDSKREAMPSNFNKTRFLQNCMTVLQDTRDIDKCDATSVARTMLKGAFLGLDFFNKECYAITYAGAVQFQTDYKGEKKLAKKYSVRPVRDIYAKLVKEGDDFKEEVKDGQQTIQFAPKPFNDGEVLGAFAVALFEDGGLVYEVMSKVDIETTRKNYSKQANGQAWTKSPGEMYKKTVLRRLCKNIELDFDTIEQAQAFEDSGDMDLNKEVKPPQVSPLNATVIDAEYTEIREGDPNATNQE
B4: SSAP_271: SEQ ID NO: 440; Nocardia ninae (protein, listed as Nocardia ninae)
chain: AESISKEVARQANPLAVVAKYQNELGKSMPAAIRGDVGRWMMVAEMAVRKNPKLLSIVQADQGASLMRALIECARLGHEPGTKYFYLVPRGNQISGEEGYHGIIKRVLNSGHYQKVLARTVFERDEYSFDPLTDQLPTHVPASGERGKPVSAYAFALHWDGTPSTVAEASPERIAAAKAKSYGTDRKDSPWQSVTGVMYRKTAIRELEPYVHTSAEPQPRQDNAGSRGAVMDPSTYDDAEPLDADVLDITADQIAEHDGEGAL
B5: SSAP_298: SEQ ID NO: 467; Nocardia aurea (protein, listed as Nocardia aurea)
chain: SESISAAADAQKVTPRIVLDRHRDAFAQVLPPTINLDRWLRLAESAINASAGLLDIFRRDRGASALKALMKCAQLGHEPGSGLFHLVPKGQAIEGWEDYKGILQRILRSALYAKVVVAPVYANDEYAFDVNVDERPRHKQAAGDRGEPVRAYAYAVHRDGSTSTIAEATPAMIAGAKAKGHKTDASTSPWQNPRAPMHQKVAVRELERFVSTSAVDLRVTGDVTDLIIEEP
B6: SSAP_84: SEQ ID NO: 253; Bet Fimbriiglobus ruber (protein)
chain: TDIAHRSYSAPQLSLIRRTVAKDTNQDEFDLFIEICKQQGLDPFKKQIFAQVYNKDKADKRQIVIVTSIDGYRAKAQRCGDYRPAEEETRFEADAALKIRRQPMGSFVRSCGLQVRPGQGVVSRVGEARWDEFAPLDDAEFDWVDTGETWPDTGKPKKKKVAKSAKKTLKEGNWKNMPHVMLGKCAEAQALGGGGRKRSAACTSKRRWTRSTWT
modifications: Fimbriiglobus ruber
B7: SSAP_285: SEQ ID NO: 454; Chitinophaga lutea (protein, listed as Chitinophaga lutea)
chain: SNVNAPAAPVKSKIEVLKDIMNAPSVQEQFQNALRENSGVFVASVIDLFNSDTYLQNCEPKQVVMECLKAATLKLPINKNLGFAYVVPYKSNGKQIPQFQIGYKGYIQLAMRTGQYRIINADKVYEGEYRTKNKLTGEFDLSGTATSETVVGYFAHIEMLNGFAKTLYMTKEKVAAHAKKYSKSFGKETSPWHTEFDAMALKTVLRNLLSHYGYLSVEMMGAMNADIESDQVGSEVSQTINDKANKQEMTFDDAEVVDDDEKEQNPI
B8: SSAP_126: SEQ ID NO: 295; Marispirochaeta aestuarii (protein, listed as Marispirochaeta aestuarii)
chain: RTDGTKEAGAAATAPTEGKAPAKAHKPADTIGAMIEKLKPQIERALPKHVTPDRMARMALTAIRNNPKLGQAEAVSLMGSIIQASQLGLEPNTPLGQCYIIPYNSKNGMQAQFQMGYKGIVDLAHRSGQYRQLTAHPVDEADEFRYSYGLNPDLVHVPAEKPSGKITHYYAVYHLTNGGFDFRVWSREKVEAHAKQYSKSFSSGPWQTNFDQMACKTVMIDLLRYAPKSVEIAKATSADNRTHTINPEDPDLNIDTIDGDFELEGEER
B9: SSAP_246: SEQ ID NO: 415; Anoxybacillus (protein, listed as Anoxybacillus sp.)
chain: ATTQSLKNQIAKKQNSNIQQGVTLKQLLNSESMKKRFEEVLGKRAQQFATSILNLYNSEKMLQKCEPMSIISSAMVAASLDLPVDKNLGYMYIVPYGTTATPIMGYRGYIQLALRTGQYKHINVIEVYEGELQKWDRLTEEFEMDSKQKKSDVVVGYAAYFELINGFRKTVYWTREQIEAHRKKYSKSDFGWKNDFDAMAKKTVLKSLLSKWGILSIEMQNAFNEDEKEVDTKEVKDITSEVQEAEYIEAEAFEVPIETETPQQEEIVFDAQ
B10: SSAP_293: SEQ ID NO: 462; Brevibacillus porteri (protein)
chain: ADQNKLVVIYNNLEKLLDSKREAMPTSFNKTRFLQNCMTVLQETKDIELCNPTTVARTMLKGAFLGLDFFNKECYAVVYKGSVEFQTDYKGEVKLAKKYSTKPVREVYAKLVREGDEFAEEINSGNQTINFRPKPFNNEEILGAFAVVNYMDGTMAYDIMSKEEIEKIKENFSRKSKQTGEYSKAWVVTPGEMYKKTVLRRLCKNIDLDFDTIEQRQAFEDAGDVDFNQEVKPAQQSPLNSTVIEAEFEEVSEEQTNAAEQE
modifications: Brevibacillus porter
notes: Brevibacillus porteri
B11: SSAP_147: SEQ ID NO: 316; Staphylococcus felis (protein, listed as Staphylococcus felis)
chain: ANANSFKEQVSNKNEVSENNNTPQQKTKGPRQQVSDLLERMAPEIQKALPSHMSAERMARIAMTAISSNTQLLECNPRSLIGALLQASQIGLEPNTALGQAYLIPYYNRNKGEFEAQLQLSYLGLIELATRTGQYKAIYAHEVYKEDEFYYEYGLHKNLVHKPVDDPKSEPIGYYAVYHLQNGGYDFSFWTRNKVELHSGQYSKAVQKGWNSPWKTDFNAMAKKTVLKDLLKYAPKSVEVSRAVGTDSKVSEISQNGEIIDVTDYSKEEE
B12: SSAP_318: SEQ ID NO: 487; Shewanella morhuae (protein, listed as Shewanella morhuae)
chain: QTAQVKLSVPHQQVYQDNFNYLSSQVVGHLVDLNEEIGYLNQIVFNSLSTASPLDVAAPWSVYGLLLNVCRLGLSLNPEKKLAYVMPSWSETGEIIMKLYPGYRGEIAIASNFNVIKNANAVLVYENDHFRIQAATGEIEHFVTSLSIDPRVRGACSGGYCRSVLMDNTIQISYLSIEEMNAIAQNQIEANMGNTPWNSIWRTEMNRVALYRRAAKDWRQLIKATPEIQSALSDTEY
B13: SSAP_206: SEQ ID NO: 375; Actinopolyspora xinjiangensis (protein, listed as Actinopolyspora xinjiangensis)
chain: TGQTIGTAVAKKDDENPSAIIATNRADLARVMPSHVRTDSWVRIAQGIVRRDKNLAHAARQSPGTLMVALMEAARLGLEPGTEQYYLTPRKNKGKPEVLGIPGYQGLIELMYRSGAVSSVVVETVRENDTFQWAPGRMERPEHEADWFAINGERGQLRGVYAYAIMSNGATSKVVVLNRNDIARARDSAQGADSEHSPWKNHEEAMWLKTAARRLAKWVPTSTEDRRIVQGVAERSDQPTEAPLDLTDEPDTDQPIEGELVDEEATQ

system: gene editing with Cas9 and dCas9; experiment: Screen of 322 new SSAP proteins, activity across all experiments (Cas9 and dCas9, Table 5); format: cell-based; set-up: scale not given here; conditions: not given
Procedure, shortened: (§1)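 First, 322 new single-strand annealing proteins are identified from sequences. Next they are synthesized. Finally each is assayed for editing in combination with Cas9 and, separately, dCas9.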

Molecule	Activity across all experiments
B1	−2.219
B2	−1.700
B3	−1.809
B4	−1.788
B5	−1.640
B6	−0.284
B7	−2.441
B8	−3.591
B9	−1.537
B10	−4.559
B11	−1.672
B12	−1.849
B13	−0.786

system: gene editing with Cas9; experiment: Screen of 322 new SSAP proteins, gene editing activity with Cas9 (Table 5); format: cell-based; set-up: Cas9 with SSAP activity: scale not given here; conditions: not given
Procedure, shortened: as §1

Molecule	Cas9 with SSAP activity
B1	−0.504
B2	0.575
B3	0.282
B4	0.372
B5	0.510
B6	−1.881
B7	−1.178
B8	−3.406
B9	0.824
B10	−5.271
B11	0.679
B12	0.045
B13	2.444

same assay, conditions: normalized

Molecule	Cas9 with SSAP activity (normalized)
B1	−0.093
B2	0.280
B3	0.572
B4	0.623
B5	0.610
B6	−0.590
B7	−0.366
B8	−0.596
B9	0.919
B10	−0.961
B11	1.062
B12	0.060
B13	1.806

system: gene editing with dCas9; experiment: Screen of 322 new SSAP proteins, gene editing activity with dCas9 (Table 5); format: cell-based; set-up: dCas9 with SSAP activity: scale not given here; conditions: not given
Procedure, shortened: as §1

Molecule	dCas9 with SSAP activity
B1	−3.935
B2	−3.974
B3	−3.899
B4	−3.947
B5	−3.790
B6	1.313
B7	−3.704
B8	−3.777
B9	−3.897
B10	−3.846
B11	−4.023
B12	−3.743
B13	−4.016

same assay, conditions: normalized

Molecule	dCas9 with SSAP activity (normalized)
B1	−0.892
B2	−0.714
B3	−0.575
B4	−0.622
B5	−0.578
B6	1.563
B7	−0.608
B8	−0.714
B9	−0.611
B10	−0.563
B11	−0.498
B12	−0.597
B13	−0.671
